According to patent CN106554420A (SHANGHAI UNION BIOPHARM CO LTD; LI JUN, dated 2017):

Tests used:
[1] = target: T1, cyPCSK9，猕猴PCSK9胞外区His融合蛋白 (猕猴 (macaque), UniProt A8T662 31-692, biotin-labelled in the ELISA (sites not given)); assay: ELISA, biotin-labelled PCSK9-His captured on neutravidin-coated plate
T1 construct: Bought (Novoprotein CA87); The printed entry includes the His tag

[2] = target: T2, huPCSK9-His，重组人PCSK9胞外区His融合蛋白 (human, UniProt Q8NBP7 31-692, biotin-labelled in the ELISA and in the LDL-R blocking assay (sites not given)); assay: as above
T2 construct: Bought (Novoprotein CA83); The printed entry already includes the His tag; also called 人PCSK9-His; 人源PCSK9

[3] = target: T2, huPCSK9-His，重组人PCSK9胞外区His融合蛋白; assay: cell-based or functional assay
[4] = target: T1, cyPCSK9，猕猴PCSK9胞外区His融合蛋白; assay: BLI (ForteBio), chF3-9 captured on anti-human Fc (AHC) sensor, PCSK9 in solution, 1:1 global fit
[5] = target: T2, huPCSK9-His，重组人PCSK9胞外区His融合蛋白; assay: as above

T2 sequence (Q8NBP7 other isoform, or with tags, fused parts or gaps limits assumed): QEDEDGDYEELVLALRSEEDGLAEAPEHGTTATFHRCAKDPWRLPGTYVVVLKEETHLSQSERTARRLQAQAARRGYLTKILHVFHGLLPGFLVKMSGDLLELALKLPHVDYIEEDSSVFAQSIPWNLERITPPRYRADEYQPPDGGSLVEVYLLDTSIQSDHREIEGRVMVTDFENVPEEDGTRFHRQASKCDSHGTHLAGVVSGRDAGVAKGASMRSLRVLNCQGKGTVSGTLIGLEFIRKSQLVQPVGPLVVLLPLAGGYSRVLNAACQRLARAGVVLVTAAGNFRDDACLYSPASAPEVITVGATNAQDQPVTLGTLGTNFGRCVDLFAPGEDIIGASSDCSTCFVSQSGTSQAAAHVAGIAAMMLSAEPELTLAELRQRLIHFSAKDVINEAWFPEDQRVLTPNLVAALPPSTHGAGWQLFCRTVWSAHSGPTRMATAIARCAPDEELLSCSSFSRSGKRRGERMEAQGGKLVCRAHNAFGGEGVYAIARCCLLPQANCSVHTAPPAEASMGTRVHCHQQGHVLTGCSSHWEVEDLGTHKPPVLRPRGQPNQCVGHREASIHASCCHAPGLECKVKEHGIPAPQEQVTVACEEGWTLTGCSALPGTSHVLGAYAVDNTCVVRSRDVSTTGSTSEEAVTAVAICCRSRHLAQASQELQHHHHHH
T1 sequence (A8T662 other isoform, or with tags, fused parts or gaps limits assumed, form in doubt): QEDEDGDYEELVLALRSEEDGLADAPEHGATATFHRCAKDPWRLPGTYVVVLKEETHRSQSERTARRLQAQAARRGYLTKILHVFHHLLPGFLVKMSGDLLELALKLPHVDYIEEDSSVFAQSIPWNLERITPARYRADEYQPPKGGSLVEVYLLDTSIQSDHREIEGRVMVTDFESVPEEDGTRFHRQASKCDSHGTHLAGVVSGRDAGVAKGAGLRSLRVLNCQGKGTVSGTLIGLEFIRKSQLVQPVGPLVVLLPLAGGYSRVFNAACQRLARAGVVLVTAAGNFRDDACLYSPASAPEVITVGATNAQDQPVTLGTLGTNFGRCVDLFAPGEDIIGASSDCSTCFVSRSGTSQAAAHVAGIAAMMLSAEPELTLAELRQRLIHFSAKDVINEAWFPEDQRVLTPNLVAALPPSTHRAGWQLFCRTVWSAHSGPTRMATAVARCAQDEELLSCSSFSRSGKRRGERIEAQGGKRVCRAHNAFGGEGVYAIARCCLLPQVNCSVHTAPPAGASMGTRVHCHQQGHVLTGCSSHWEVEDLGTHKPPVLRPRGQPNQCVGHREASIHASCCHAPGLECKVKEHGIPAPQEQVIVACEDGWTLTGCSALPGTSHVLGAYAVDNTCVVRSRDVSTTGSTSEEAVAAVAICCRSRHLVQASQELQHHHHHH

EC50 [1] [nM] | EC50 [2] [nM] | 有效活性浓度(EC50), antagonism of PCSK9 inhibition of LDL uptake by HepG2 cells [3] [nM] | Kd [4] [nM] | Kd [5] [nM] | Binder
0.62 | 0.68 | 10 | – | – | 鼠单抗mF3-9 (antibody, V domains shown, Mouse hybridoma monoclonal antibody; also called 鼠单抗F3-9; 抗体F3-9) VH: QVQLQQSGAELVRPGSSVKISCKASGYSFSSYWMNWVKQRPGQGLEWIGQIYPGDGDTNFNGKFKGKATLTADKSSSTAYMQLSSLTSEDSAVYFCGNYDYDGEIPYWGQGTTLTVSS VL: DIFLTQSPAILSVSPGERVNFSCRASQTIGTSLHWYQQRTNGSPRLLIKYASESISGIPSRFSGSGSGTEFTLRINSVESEDIADYYCQQSSKWPLTFGQGTKVEIK
– | – | – | 1.27 | 0.42 | 人-鼠嵌合型F3-9抗体(chF3-9) (antibody, IgG2, V domains shown, also called F3-9嵌合抗体; 嵌合PCSK9抗体F3-9) VH: QVQLQQSGAELVRPGSSVKISCKASGYSFSSYWMNWVKQRPGQGLEWIGQIYPGDGDTNFNGKFKGKATLTADKSSSTAYMQLSSLTSEDSAVYFCGNYDYDGEIPYWGQGTTLTVSS VL: DIFLTQSPAILSVSPGERVNFSCRASQTIGTSLHWYQQRTNGSPRLLIKYASESISGIPSRFSGSGSGTEFTLRINSVESEDIADYYCQQSSKWPLTFGQGTKVEIK
